Test results: US20150337051A1 (MORPHOTEK, published 2015)

Key:
[1] = target: T1, recombinant CHO TEM-1 Fc fusion protein (UniProt Q9HCU0); assay: ECL sandwich, competition: biotin-9G5 capture, sulfo-TAG-15F8 detection; MORAb-004 spike 3.125 µg/mL, TEM-1-Fc QC 2 ng/mL; recovery at 0 µg/mL MORAb-004: 106
T1 sequence (looked up): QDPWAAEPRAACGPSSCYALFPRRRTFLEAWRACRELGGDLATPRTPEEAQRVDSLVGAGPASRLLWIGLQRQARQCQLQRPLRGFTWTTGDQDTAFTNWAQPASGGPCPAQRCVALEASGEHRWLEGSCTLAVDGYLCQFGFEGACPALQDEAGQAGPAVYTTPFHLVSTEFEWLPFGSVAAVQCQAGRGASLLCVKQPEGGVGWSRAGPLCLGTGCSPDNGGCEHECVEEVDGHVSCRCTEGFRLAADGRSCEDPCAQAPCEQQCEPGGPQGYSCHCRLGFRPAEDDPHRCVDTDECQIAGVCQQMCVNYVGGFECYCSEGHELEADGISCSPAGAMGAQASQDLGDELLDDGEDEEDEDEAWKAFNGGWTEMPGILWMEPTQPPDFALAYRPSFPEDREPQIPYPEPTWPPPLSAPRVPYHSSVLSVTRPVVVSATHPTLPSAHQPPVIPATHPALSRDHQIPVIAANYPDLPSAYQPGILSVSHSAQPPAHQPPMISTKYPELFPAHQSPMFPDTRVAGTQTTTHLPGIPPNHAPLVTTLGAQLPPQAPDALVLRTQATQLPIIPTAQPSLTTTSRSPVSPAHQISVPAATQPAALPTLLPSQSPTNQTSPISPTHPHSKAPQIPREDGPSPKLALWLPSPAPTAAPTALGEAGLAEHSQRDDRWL

[2] = target: T1, recombinant CHO TEM-1 Fc fusion protein; assay: ECL sandwich, competition: biotin-9G5 capture, sulfo-TAG-15F8 detection; MORAb-004 spike 1.5625 µg/mL, TEM-1-Fc QC 50 ng/mL; recovery at 0 µg/mL MORAb-004: 104
[3] = target: T1, recombinant CHO TEM-1 Fc fusion protein; assay: ECL sandwich, competition: biotin-9G5 capture, sulfo-TAG-15F8 detection; MORAb-004 spike 1.5625 µg/mL, TEM-1-Fc QC 10 ng/mL; recovery at 0 µg/mL MORAb-004: 105
[4] = target: T1, recombinant CHO TEM-1 Fc fusion protein; assay: ECL sandwich, competition: biotin-9G5 capture, sulfo-TAG-15F8 detection; MORAb-004 spike 0.78125 µg/mL, TEM-1-Fc QC 2 ng/mL; recovery at 0 µg/mL MORAb-004: 106
[5] = target: T1, recombinant CHO TEM-1 Fc fusion protein; assay: ECL sandwich, competition: biotin-9G5 capture, sulfo-TAG-15F8 detection; MORAb-004 spike 12.5 µg/mL, TEM-1-Fc QC 50 ng/mL; recovery at 0 µg/mL MORAb-004: 104
[6] = target: T1, recombinant CHO TEM-1 Fc fusion protein; assay: ECL sandwich, competition: biotin-9G5 capture, sulfo-TAG-15F8 detection; MORAb-004 spike 1.5625 µg/mL, TEM-1-Fc QC 0.4 ng/mL; recovery at 0 µg/mL MORAb-004: 109
[7] = target: T1, recombinant CHO TEM-1 Fc fusion protein; assay: ECL sandwich, competition: biotin-9G5 capture, sulfo-TAG-15F8 detection; MORAb-004 spike 3.125 µg/mL, TEM-1-Fc QC 0.08 ng/mL; recovery at 0 µg/mL MORAb-004: 114
[8] = target: T1, recombinant CHO TEM-1 Fc fusion protein; assay: ECL sandwich, competition: biotin-9G5 capture, sulfo-TAG-15F8 detection; MORAb-004 spike 50 µg/mL, TEM-1-Fc QC 2 ng/mL; recovery at 0 µg/mL MORAb-004: 106
[9] = target: T1, recombinant CHO TEM-1 Fc fusion protein; assay: ECL sandwich, competition: biotin-9G5 capture, sulfo-TAG-15F8 detection; MORAb-004 spike 25 µg/mL, TEM-1-Fc QC 50 ng/mL; recovery at 0 µg/mL MORAb-004: 104
[10] = target: T1, recombinant CHO TEM-1 Fc fusion protein; assay: ECL sandwich, competition: biotin-9G5 capture, sulfo-TAG-15F8 detection; MORAb-004 spike 25 µg/mL, TEM-1-Fc QC 2 ng/mL; recovery at 0 µg/mL MORAb-004: 106

B1: MORAb-004 (antibody, INN chains, looked up, V domains shown)
VH: QVQLQESGPGLVRPSQTLSLTCTASGYTFTDYVIHWVKQPPGRGLEWIGYINPYDDDTTYNQKFKGRVTMLVDTSSNTAYLRLSSVTAEDTAVYYCARRGNSYDGYFDYSMDYWGSGTPVTVSS
VL: DIQMTQSPSSLSASVGDRVTITCRASQNVGTAVAWLQQTPGKAPKLLIYSASNRYTGVPSRFSGSGSGTDYTFTISSLQPEDIATYYCQQYTNYPMYTFGQGTKVQIK
[1]
  % Recovery of TEM-1 QCs spiked with MORAb-004: 96%
[2]
  % Recovery of TEM-1 QCs spiked with MORAb-004: 98.9%
[3]
  % Recovery of TEM-1 QCs spiked with MORAb-004: 97.7%
[4]
  % Recovery of TEM-1 QCs spiked with MORAb-004: 99.9%
[5]
  % Recovery of TEM-1 QCs spiked with MORAb-004: 92.1%
[6]
  % Recovery of TEM-1 QCs spiked with MORAb-004: 102%
[7]
  % Recovery of TEM-1 QCs spiked with MORAb-004: 103%
[8]
  % Recovery of TEM-1 QCs spiked with MORAb-004: 89.9%
[9]
  % Recovery of TEM-1 QCs spiked with MORAb-004: 92.8%
[10]
  % Recovery of TEM-1 QCs spiked with MORAb-004: 89.1%
